We go through one substance from PMC4084637.

By Kd is commonly meant the free concentration of one partner at which half of the binding sites on the other are occupied at equilibrium, for simple one-to-one binding. A lower Kd goes with tighter binding.

One test addresses antibody PGT128 (human). The test is described as follows: SPR.
In another test the target is antibody PGT135 (human). Nature of the test: SPR. For orientation: SPR reads the build-up and loss of mass on a sensor chip optically.
antibody PGT135 (human), sequence (heavy, as listed by the source, chain 1 of 2): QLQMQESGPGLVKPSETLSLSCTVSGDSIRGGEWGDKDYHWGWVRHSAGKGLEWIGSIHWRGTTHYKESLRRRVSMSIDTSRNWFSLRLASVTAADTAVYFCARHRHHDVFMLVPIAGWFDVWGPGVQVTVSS
antibody PGT135 (human), sequence (light, as listed by the source, chain 2 of 2): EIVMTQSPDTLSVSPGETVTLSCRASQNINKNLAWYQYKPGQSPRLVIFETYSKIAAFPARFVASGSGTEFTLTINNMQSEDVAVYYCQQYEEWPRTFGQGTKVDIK

antibody PGT128 (human), sequence (heavy, as listed by the source, chain 1 of 2): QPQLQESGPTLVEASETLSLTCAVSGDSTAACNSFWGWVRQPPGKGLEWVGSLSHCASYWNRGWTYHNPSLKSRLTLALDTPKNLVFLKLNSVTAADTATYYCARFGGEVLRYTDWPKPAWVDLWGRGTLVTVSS
antibody PGT128 (human), sequence (light, as listed by the source, chain 2 of 2): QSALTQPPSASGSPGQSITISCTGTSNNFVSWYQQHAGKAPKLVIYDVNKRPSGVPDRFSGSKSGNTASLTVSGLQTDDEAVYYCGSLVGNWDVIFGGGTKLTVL

For the substance “YU2 gp120 (from UniProt P35961 32-498) (natural protein)”, the Kd with antibody PGT128 (human) came to 11 nM; in the test with antibody PGT135 (human), 18 nM.
